Laboratory results from PMC8501970, “Structural basis for activation of Swi2/Snf2 ATPase RapA by RNA polymerase” (Nucleic Acids Research, 2021).

What was measured:
RNAP β subunit = target: T1, RNAP β subunit (Escherichia coli, UniProt P0A8V2 1-1342); assay: cryo-EM structure; RapA–RNAP complex purified by gel filtration, 10 μM incubated with 25 μM DNA/RNA hybrid in 20 mM Tris–HCl pH 7.5, 50 mM NaCl, 5 mM MgCl2, 0.2 mM AMPPNP at 37°C for 10 min; 8 mM CHAPSO added before grids; 3.4 Å map; settings: both partners purified
T1 construct: RNA polymerase beta subunit, Escherichia coli, as in the core enzyme m2; Stood in the structure as a subunit of the RNAP elongation complex; also called β flap tip helix (FTH) lies in it; source: part of the purified E. coli RNAP core enzyme

RNAP β' subunit = target: T2, RNAP β' subunit (Escherichia coli, UniProt P0A8T7 1-1407); assay: as above; settings: both partners purified
T2 construct: RNA polymerase beta' subunit, Escherichia coli, as in the core enzyme m2; Stood in the structure as a subunit of the RNAP elongation complex; source: part of the purified E. coli RNAP core enzyme
T2 sequence (P0A8T7 whole entry): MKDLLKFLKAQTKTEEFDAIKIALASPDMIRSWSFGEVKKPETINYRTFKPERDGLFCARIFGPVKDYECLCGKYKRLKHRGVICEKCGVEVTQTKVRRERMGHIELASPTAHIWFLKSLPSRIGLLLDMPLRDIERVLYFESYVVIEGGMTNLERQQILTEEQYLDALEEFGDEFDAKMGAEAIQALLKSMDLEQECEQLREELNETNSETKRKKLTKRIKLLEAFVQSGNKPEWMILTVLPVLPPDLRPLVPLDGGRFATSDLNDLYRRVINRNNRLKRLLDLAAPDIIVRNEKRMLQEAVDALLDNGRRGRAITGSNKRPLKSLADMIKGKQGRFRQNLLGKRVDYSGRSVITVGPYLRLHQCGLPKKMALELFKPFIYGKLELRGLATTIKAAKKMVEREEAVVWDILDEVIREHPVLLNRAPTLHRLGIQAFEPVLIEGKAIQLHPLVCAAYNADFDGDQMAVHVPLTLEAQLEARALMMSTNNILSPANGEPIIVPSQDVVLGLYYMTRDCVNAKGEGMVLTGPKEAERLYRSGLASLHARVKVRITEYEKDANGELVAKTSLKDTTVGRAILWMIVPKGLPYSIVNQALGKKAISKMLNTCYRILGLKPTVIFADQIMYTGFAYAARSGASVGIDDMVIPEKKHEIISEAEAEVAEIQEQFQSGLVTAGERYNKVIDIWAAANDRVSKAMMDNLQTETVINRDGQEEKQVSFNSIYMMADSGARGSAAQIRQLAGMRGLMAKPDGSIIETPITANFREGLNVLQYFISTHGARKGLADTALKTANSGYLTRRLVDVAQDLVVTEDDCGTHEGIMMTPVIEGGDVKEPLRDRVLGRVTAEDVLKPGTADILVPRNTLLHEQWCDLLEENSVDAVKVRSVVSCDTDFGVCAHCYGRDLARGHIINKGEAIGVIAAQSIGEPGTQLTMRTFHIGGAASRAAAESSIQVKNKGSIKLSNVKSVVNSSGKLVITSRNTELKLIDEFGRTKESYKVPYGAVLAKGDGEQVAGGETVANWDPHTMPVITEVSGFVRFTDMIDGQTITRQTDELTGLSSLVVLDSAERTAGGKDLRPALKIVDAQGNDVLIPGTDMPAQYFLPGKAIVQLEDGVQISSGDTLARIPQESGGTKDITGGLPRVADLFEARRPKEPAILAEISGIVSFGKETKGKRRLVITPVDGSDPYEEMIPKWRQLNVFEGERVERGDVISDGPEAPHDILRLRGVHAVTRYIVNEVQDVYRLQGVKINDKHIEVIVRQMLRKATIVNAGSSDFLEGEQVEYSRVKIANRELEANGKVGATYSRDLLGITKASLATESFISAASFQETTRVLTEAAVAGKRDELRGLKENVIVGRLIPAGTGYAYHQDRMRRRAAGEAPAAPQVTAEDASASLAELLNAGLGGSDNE

T1 sequence (P0A8V2 whole entry): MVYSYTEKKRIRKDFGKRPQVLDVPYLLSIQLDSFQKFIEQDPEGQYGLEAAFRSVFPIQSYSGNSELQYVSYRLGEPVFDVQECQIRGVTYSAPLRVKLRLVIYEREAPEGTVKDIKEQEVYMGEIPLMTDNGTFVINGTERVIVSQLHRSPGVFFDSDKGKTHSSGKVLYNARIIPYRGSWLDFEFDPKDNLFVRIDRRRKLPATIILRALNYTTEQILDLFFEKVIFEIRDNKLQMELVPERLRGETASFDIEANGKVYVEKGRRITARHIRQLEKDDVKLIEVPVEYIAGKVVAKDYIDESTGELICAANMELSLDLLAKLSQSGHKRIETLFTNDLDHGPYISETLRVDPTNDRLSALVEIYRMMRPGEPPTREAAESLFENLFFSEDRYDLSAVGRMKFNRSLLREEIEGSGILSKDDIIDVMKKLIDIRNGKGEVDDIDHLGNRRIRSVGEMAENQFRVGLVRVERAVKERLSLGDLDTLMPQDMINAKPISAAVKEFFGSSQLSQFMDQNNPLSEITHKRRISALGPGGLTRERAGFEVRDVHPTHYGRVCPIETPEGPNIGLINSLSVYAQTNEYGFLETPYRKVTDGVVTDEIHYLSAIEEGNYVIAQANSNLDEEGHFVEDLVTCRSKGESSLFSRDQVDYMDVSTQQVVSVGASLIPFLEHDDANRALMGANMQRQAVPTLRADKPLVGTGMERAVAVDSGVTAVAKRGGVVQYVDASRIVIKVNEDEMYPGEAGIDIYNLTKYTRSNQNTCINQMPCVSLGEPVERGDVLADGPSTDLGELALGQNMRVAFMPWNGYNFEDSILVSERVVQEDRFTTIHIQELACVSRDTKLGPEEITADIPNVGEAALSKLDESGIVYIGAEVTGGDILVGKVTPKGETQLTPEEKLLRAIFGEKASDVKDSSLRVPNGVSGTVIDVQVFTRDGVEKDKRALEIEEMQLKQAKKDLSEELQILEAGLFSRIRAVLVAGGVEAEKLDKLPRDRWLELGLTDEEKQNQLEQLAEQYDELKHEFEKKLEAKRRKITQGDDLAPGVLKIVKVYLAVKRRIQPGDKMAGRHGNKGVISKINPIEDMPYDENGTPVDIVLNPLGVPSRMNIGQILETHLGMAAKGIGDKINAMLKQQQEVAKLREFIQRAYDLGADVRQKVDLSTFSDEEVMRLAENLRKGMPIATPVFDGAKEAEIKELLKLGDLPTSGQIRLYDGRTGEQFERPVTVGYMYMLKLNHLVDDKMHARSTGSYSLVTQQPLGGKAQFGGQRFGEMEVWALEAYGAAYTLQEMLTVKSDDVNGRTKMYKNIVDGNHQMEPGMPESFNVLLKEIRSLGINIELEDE

B1: N-terminal His-tagged RapA protein (enzyme, Escherichia coli)
chain: MPFTLGQRWISDTESELGLGTVVAVDARTVTLLFPSTGENRLYARSDSPVTRVMFNPGDTITSHDGWQMQVEEVKEENGLLTYIGTRLDTEESGVALREVFLDSKLVFSKPQDRLFAGQIDRMDRFALRYRARKYSSEQFRMPYSGLRGQRTSLIPHQLNIAHDVGRRHAPRVLLADEVGLGKTIEAGMILHQQLLSGAAERVLIIVPETLQHQWLVEMLRRFNLRFALFDDERYAEAQHDAYNPFDTEQLVICSLDFARRSKQRLEHLCEAEWDLLVVDEAHHLVWSEDAPSREYQAIEQLAEHVPGVLLLTATPEQLGMESHFARLRLLDPNRFHDFAQFVEEQKNYRPVADAVAMLLAGNKLSNDELNMLGEMIGEQDIEPLLQAANSDSEDAQSARQELVSMLMDRHGTSRVLFRNTRNGVKGFPKRELHTIKLPLPTQYQTAIKVSGIMGARKSAEDRARDMLYPERIYQEFEGDNATWWNFDPRVEWLMGYLTSHRSQKVLVICAKAATALQLEQVLREREGIRAAVFHEGMSIIERDRAAAWFAEEDTGAQVLLCSEIGSEGRNFQFASHMVMFDLPFNPDLLEQRIGRLDRIGQAHDIQIHVPYLEKTAQSVLVRWYHEGLDAFEHTCPTGRTIYDSVYNDLINYLASPDQTEGFDDLIKNCREQHEALKAQLEQGRDRLLEIHSNGGEKAQALAESIEEQDDDTNLIAFAMNLFDIIGINQDDRGDNMIVLTPSDHMLVPDFPGLSEDGITITFDREVALAREDAQFITWEHPLIRNGLDLILSGDTGSSTISLLKNKALPVGTLLVELIYVVEAQAPKQLQLNRFLPPTPVRMLLDKNGNNLAAQVEFETFNRQLNAVNRHTGSKLVNAVQQDVHAILQLGEAQIEKSARALIDAARNEADEKLSAELSRLEALRAVNPNIRDDELTAIESNRQQVMESLDQAGWRLDALRLIVVTHQ
notes: RapA (HepA), RNA polymerase-associated Swi2/Snf2 ATPase, Escherichia coli; construct of the cryo-EM sample; also called HepA
B1: binds (RNAP β subunit); binds (RNAP β' subunit).
